To fix the notation:
B2: 14-3-3σ-ΔC (C-terminally truncated human 14-3-3σ) (domain or fragment, UniProt P31947 1-231, looked up)
chain: MERASLIQKAKLAEQAERYEDMAAFMKGAVEKGEELSCEERNLLSVAYKNVVGGQRAAWRVLSSIEQKSNEEGSEEKGPEVREYREKVETELQGVCDTVLGLLDSHLIKEAGDAESRVFYLKMKGDYYRYLAEVATGDDKKRIIDSARSAYQEAMDISKKEMPPTNPIRLGLALNFSVFHYEIANSPEEAISLAKTTFDEAMADLHTLSEDSYKDSTLIMQLLRDNLTLWT
notes: 14-3-3σ, human, C-terminally truncated gene fragment (ΔC) cloned into pPROEX-HTb; the structures show 'all 231 residues of the 14-3-3 monomer'; No removal of the His6 tag is described; The dimer in the crystals is formed with a symmetry mate; also called 14-3-3-ΔC; source: E. coli BL21 Rosetta (DE3), purified (nickel-nitrilotriacetic acid column)

The target of data set [1] is B2. Put plainly: MST; label-free, intrinsic fluorescence of the 14-3-3 protein; 0.6 µM 14-3-3 protein titrated with peptide; 25 mM MES pH 6.5, 5 mM MgCl2, 5 mM CaCl2; 25°C. Conditions: both partners purified.
Data set [2] has as its target 14-3-3σ-ΔC (C-terminally truncated human 14-3-3σ) (human) (UniProt P31947). In words: ITC; 150 µM 14-3-3σ-ΔC in the cell, fourfold-concentrated phosphopeptide in the needle; 2 µl injections; 25°C; one-site fit; apparent. A general note: Isothermal titration calorimetry measures the heat released or taken up as one component is titrated into another.
For data set [3], the target named is T1, 14-3-3 theta (Homo sapiens).
T1 chain: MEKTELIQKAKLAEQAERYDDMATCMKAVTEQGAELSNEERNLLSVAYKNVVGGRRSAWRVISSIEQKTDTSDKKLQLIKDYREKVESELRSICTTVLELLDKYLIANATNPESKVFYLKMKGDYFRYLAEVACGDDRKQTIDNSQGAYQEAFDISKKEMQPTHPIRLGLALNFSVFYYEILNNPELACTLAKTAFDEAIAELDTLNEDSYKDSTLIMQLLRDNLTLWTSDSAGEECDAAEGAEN
Put plainly: MST.

The target of data set [4] is T2, 14-3-3 epsilon (Homo sapiens).
T2 chain: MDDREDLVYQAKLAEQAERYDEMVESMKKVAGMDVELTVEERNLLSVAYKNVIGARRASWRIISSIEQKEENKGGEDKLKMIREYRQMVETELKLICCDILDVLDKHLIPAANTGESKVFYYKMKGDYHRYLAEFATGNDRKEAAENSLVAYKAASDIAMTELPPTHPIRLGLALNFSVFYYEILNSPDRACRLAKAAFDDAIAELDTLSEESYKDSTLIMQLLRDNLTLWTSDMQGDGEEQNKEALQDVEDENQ
In words: MST.

Data set [5] concerns the molecule itself. In words: crystal structure; protein and peptide mixed 1:1.5; 0.1 M HEPES-NaOH pH 7.5, 0.2 M CaCl2, 24-28% PEG 400, 5% glycerol, 1 mM TCEP, 4°C.
Data set [6] deals with T3, 14-3-3σ-ΔC (C-terminally truncated human 14-3-3σ) (human, UniProt P31947 1-231).
T3 chain: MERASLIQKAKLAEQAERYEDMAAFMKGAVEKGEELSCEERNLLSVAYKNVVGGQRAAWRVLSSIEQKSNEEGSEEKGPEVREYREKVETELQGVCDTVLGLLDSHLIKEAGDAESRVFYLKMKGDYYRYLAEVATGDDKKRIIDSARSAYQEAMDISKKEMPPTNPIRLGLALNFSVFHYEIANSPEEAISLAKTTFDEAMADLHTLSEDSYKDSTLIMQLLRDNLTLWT
Put plainly: MST.

In data set [7] the target is 14-3-3σ-ΔC (C-terminally truncated human 14-3-3σ) (human) (UniProt P31947). Put plainly: MST; label-free, intrinsic fluorescence of the 14-3-3 protein; 0.6 µM 14-3-3 protein titrated with peptide; 25 mM MES pH 6.5, 5 mM MgCl2, 5 mM CaCl2; 25°C.

The text below walks through data of paper PMC12809495, “Potential 14-3-3 binding sites in sirtuins reveal extended phosphosite-recognition modes” (Acta Crystallographica Section F: Structural Biology …, 2026).

Several values for one entry are separate records, joined by “and”; a condition that tells them apart may be missing. Identical values can stand only once. Where no end group is shown, it is not given here. [ ]: non-standard residue; d: D form. pS = N[C@@H](COP(=O)(O)O)C(=O)O Bounds are passed on as bounds.

B1: Sirt3^S103 nonphosphorylated peptide (peptide)
chain: GRRSISFSVGA
modifications: none (nonphosphorylated Ser103). Limits are not given; they are taken from the 11-residue peptide in PDB 8ANC entity 2 (GRRSISFSVGA, S103 at position 6), assuming the same endecamer …
In turn, B1 returned a Kd in data set [1] of roughly 881 µM.

Turning to VLSSS[pS]CGSNS (also: phosphoserine at 670 (place in chain not given here)) [Sirt1^pS670 phospho-endecamer peptide], the Kd in data set [2] was 5 µM; in data set [3], 93 µM; in data set [4], greater than 183 µM.

On to B2, for which the binding result in data set [5] is recorded as “binds”.

As for GRRSI[pS]FSVGA (also: phosphoserine at 103 (place in chain not given here)) [Sirt3^pS103 phospho-endecamer peptide], the Kd in data set [6] is 10 µM; in data set [3], 52 µM; in data set [4], greater than 267 µM; in data set [7] it was 1.5 µM and 2.1 µM.
